Data published in article PMC8254717, “Characterization of the DdrD protein from the extremely radioresistant bacterium Deinococcus radiodurans”.

What was measured:
DdrD [1] = molecular target: T1, DdrD (Deinococcus radiodurans R1 (ATCC 13939), UniProt Q9RXI7 1-198); experiment: EMSA; 5 mM Mg2+; DdrD up to 8 uM; not completely shifted at highest concentration; proteinase K releases DNA; EMSA: 40 mM Tris-HCl pH 7.8, 5 mM MgCl2, 1.5 mM DTT, 50 mM NaCl, 2.5% glycerol, 3.3 nM DNA, 15 min at 4 C; 6% native PAGE in 0.25X TBE with 10% glycerol; conditions: protein: recombinant; tags: none (untagged; native stop codon in reverse primer, pET21a NdeI/EcoRI); label: 5' Cy5
T1 sequence: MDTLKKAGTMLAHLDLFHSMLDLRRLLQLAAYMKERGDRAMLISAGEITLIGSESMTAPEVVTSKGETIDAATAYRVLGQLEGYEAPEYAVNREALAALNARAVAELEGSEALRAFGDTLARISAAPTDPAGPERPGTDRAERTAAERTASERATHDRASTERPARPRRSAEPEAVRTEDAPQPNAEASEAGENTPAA

DdrD [2] = molecular target: T1, DdrD; experiment: EMSA; 5 mM Mg2+; same DdrD concentrations as oligo 1; EMSA: 40 mM Tris-HCl pH 7.8, 5 mM MgCl2, 1.5 mM DTT, 50 mM NaCl, 2.5% glycerol, 3.3 nM DNA, 15 min at 4 C; 6% native PAGE in 0.25X TBE with 10% glycerol; conditions: protein: recombinant; tags: none (untagged; native stop codon in reverse primer, pET21a NdeI/EcoRI); label: 5' Cy5 on strand 1; blunt

B1: oligo 1 (67-mer ssDNA) (ssDNA)
DNA: CTGTTTAAGAAATTCACCTCGAAAGCAAGCTGATAAACCGATACAATTAAAGGCTCCTTTTGGAGCC
B1: binds (DdrD [1]).

B2: oligo 2 (67-mer dsDNA) (dsDNA)
DNA 1: B1 DNA
DNA 2: GGCTCCAAAAGGAGCCTTTAATTGTATCGGTTTATCAGCTTGCTTTCGAGGTGAATTTCTTAAACAG
B2: no binding (DdrD [2]).
